Consider 96 substances from the Human Domainome abundance scans (Beltran et al. 2025).

± gives the uncertainty stated by the source.

The data set is described as follows: abundance fitness (aPCA) (normalised: wild type 0, dead -1); higher = more abundant; growth selection in yeast, the domain comes from the species named. Particulars: Homo sapiens.
Turning to “Scaffold attachment factor B1 A64T, Q15424”, the abundance fitness was -0.125 ± 0.078.
The figure for “Scaffold attachment factor B1 A64W, Q15424” is -0.249 ± 0.062.
As for “Scaffold attachment factor B1 A64Y, Q15424”, the figure is -0.519 ± 0.12; as for “Scaffold attachment factor B1 D33A, Q15424”, -0.303 ± 0.049; as for “Scaffold attachment factor B1 D33C, Q15424”, -0.354 ± 0.061.
As for “Scaffold attachment factor B1 D33E, Q15424”, the figure is -0.209 ± 0.078.
Turning to “Scaffold attachment factor B1 D33F, Q15424”, the abundance fitness was -0.715 ± 0.063.
As for “Scaffold attachment factor B1 D33G, Q15424”, the figure is -0.281 ± 0.053; as for “Scaffold attachment factor B1 D33H, Q15424”, -0.262 ± 0.1.
As for “Scaffold attachment factor B1 D33I, Q15424”, the figure is -0.88 ± 0.12; as for “Scaffold attachment factor B1 D33K, Q15424”, -0.451 ± 0.069.
“Scaffold attachment factor B1 D33L, Q15424” gave an abundance fitness of -0.437 ± 0.06.
As for “Scaffold attachment factor B1 D33M, Q15424”, the figure is -0.235 ± 0.055; as for “Scaffold attachment factor B1 D33N, Q15424”, -0.291 ± 0.068; as for “Scaffold attachment factor B1 D33P, Q15424”, -0.726 ± 0.069.
As for “Scaffold attachment factor B1 D33Q, Q15424”, the figure is -0.192 ± 0.069; as for “Scaffold attachment factor B1 D33S, Q15424”, -0.15 ± 0.054; as for “Scaffold attachment factor B1 D33T, Q15424”, -0.308 ± 0.077.
The figure for “Scaffold attachment factor B1 D33V, Q15424” is -0.493 ± 0.054.
Take “Scaffold attachment factor B1 D33W, Q15424”: the abundance fitness is -0.644 ± 0.062.
Consider “Scaffold attachment factor B1 D33Y, Q15424”, for which the abundance fitness was -0.813 ± 0.099.
As for “Scaffold attachment factor B1 D38A, Q15424”, the figure is -0.388 ± 0.056; as for “Scaffold attachment factor B1 D38E, Q15424”, -0.095 ± 0.059; as for “Scaffold attachment factor B1 D38F, Q15424”, -0.874 ± 0.084.
As to “Scaffold attachment factor B1 D38G, Q15424”, the abundance fitness was -0.558 ± 0.051.
As for “Scaffold attachment factor B1 D38H, Q15424”, the figure is -0.428 ± 0.089; as for “Scaffold attachment factor B1 D38I, Q15424”, -0.767 ± 0.11.
“Scaffold attachment factor B1 D38L, Q15424” came in with an abundance fitness of -0.683 ± 0.055.
The figure for “Scaffold attachment factor B1 D38M, Q15424” is -0.536 ± 0.071.
The substance “Scaffold attachment factor B1 D38N, Q15424” registered an abundance fitness of -0.414 ± 0.092.
The figure for “Scaffold attachment factor B1 D38P, Q15424” is -0.899 ± 0.057; for “Scaffold attachment factor B1 D38Q, Q15424” it is -0.107 ± 0.069; for “Scaffold attachment factor B1 D38R, Q15424” it is -0.618 ± 0.055.
Regarding “Scaffold attachment factor B1 D38S, Q15424”, the abundance fitness is -0.446 ± 0.059.
Substance “Scaffold attachment factor B1 D38T, Q15424” registered an abundance fitness of -0.307 ± 0.072.
As to “Scaffold attachment factor B1 D38V, Q15424”, the abundance fitness was -0.629 ± 0.052.
As for “Scaffold attachment factor B1 D38W, Q15424”, the figure is -0.742 ± 0.067.
As for “Scaffold attachment factor B1 D38Y, Q15424”, the figure is -0.913 ± 0.12; as for “Scaffold attachment factor B1 D49A, Q15424”, -0.329 ± 0.071.
The figure for “Scaffold attachment factor B1 D49E, Q15424” is -0.346 ± 0.077; for “Scaffold attachment factor B1 D49F, Q15424” it is -0.762 ± 0.13.
The substance “Scaffold attachment factor B1 D49G, Q15424” displayed an abundance fitness of -0.444 ± 0.062.
The figure for “Scaffold attachment factor B1 D49H, Q15424” is -0.396 ± 0.097.
As for “Scaffold attachment factor B1 D49I, Q15424”, the figure is -0.514 ± 0.1.
As for “Scaffold attachment factor B1 D49K, Q15424”, the figure is -0.275 ± 0.072; as for “Scaffold attachment factor B1 D49L, Q15424”, -0.393 ± 0.061; as for “Scaffold attachment factor B1 D49M, Q15424”, -0.464 ± 0.062.
On to “Scaffold attachment factor B1 D49N, Q15424”, for which the abundance fitness was -0.14 ± 0.061.
The figure for “Scaffold attachment factor B1 D49P, Q15424” is -0.285 ± 0.068; for “Scaffold attachment factor B1 D49Q, Q15424” it is -0.328 ± 0.072; for “Scaffold attachment factor B1 D49R, Q15424” it is -0.344 ± 0.052.
As for “Scaffold attachment factor B1 D49S, Q15424”, the figure is -0.219 ± 0.062.
The figure for “Scaffold attachment factor B1 D49T, Q15424” is -0.552 ± 0.081; for “Scaffold attachment factor B1 D49V, Q15424” it is -0.408 ± 0.057; for “Scaffold attachment factor B1 D49Y, Q15424” it is -0.5 ± 0.057.
For “Scaffold attachment factor B1 D67C, Q15424”, the abundance fitness is -0.244 ± 0.063.
As for “Scaffold attachment factor B1 D67E, Q15424”, the figure is -0.152 ± 0.089; as for “Scaffold attachment factor B1 D67F, Q15424”, -0.293 ± 0.082; as for “Scaffold attachment factor B1 D67G, Q15424”, -0.131 ± 0.046.
As for “Scaffold attachment factor B1 D67H, Q15424”, the abundance fitness was -0.333 ± 0.051.
As for “Scaffold attachment factor B1 D67I, Q15424”, the figure is -0.257 ± 0.079; as for “Scaffold attachment factor B1 D67K, Q15424”, -0.258 ± 0.091; as for “Scaffold attachment factor B1 D67L, Q15424”, -0.278 ± 0.052.
The figure for “Scaffold attachment factor B1 D67M, Q15424” is -0.167 ± 0.1; for “Scaffold attachment factor B1 D67N, Q15424” it is -0.125 ± 0.091; for “Scaffold attachment factor B1 D67Q, Q15424” it is -0.123 ± 0.077.
The figure for “Scaffold attachment factor B1 D67R, Q15424” is -0.168 ± 0.049.
Take “Scaffold attachment factor B1 D67T, Q15424”: the abundance fitness was -0.237 ± 0.071.
As for “Scaffold attachment factor B1 D67V, Q15424”, the figure is -0.19 ± 0.063.
The figure for “Scaffold attachment factor B1 D67W, Q15424” is -0.474 ± 0.048; for “Scaffold attachment factor B1 D67Y, Q15424” it is -0.263 ± 0.13.
Substance “Scaffold attachment factor B1 D73A, Q15424” registered an abundance fitness of -0.196 ± 0.065.
The figure for “Scaffold attachment factor B1 D73C, Q15424” is -0.206 ± 0.059; for “Scaffold attachment factor B1 D73E, Q15424” it is -0.072 ± 0.067; for “Scaffold attachment factor B1 D73F, Q15424” it is -0.494 ± 0.085.
The figure for “Scaffold attachment factor B1 D73G, Q15424” is -0.124 ± 0.049.
As for “Scaffold attachment factor B1 D73H, Q15424”, the figure is -0.443 ± 0.098.
Consider “Scaffold attachment factor B1 D73K, Q15424”, for which the abundance fitness was -0.652 ± 0.12.
The figure for “Scaffold attachment factor B1 D73L, Q15424” is -0.245 ± 0.059; for “Scaffold attachment factor B1 D73M, Q15424” it is -0.468 ± 0.1.
On to “Scaffold attachment factor B1 D73N, Q15424”, for which the abundance fitness was -0.091 ± 0.097.
Take “Scaffold attachment factor B1 D73P, Q15424”: the abundance fitness was -0.278 ± 0.068.
The figure for “Scaffold attachment factor B1 D73Q, Q15424” is -0.362 ± 0.11; for “Scaffold attachment factor B1 D73R, Q15424” it is -0.288 ± 0.056.
As for “Scaffold attachment factor B1 D73S, Q15424”, the figure is -0.243 ± 0.061.
As for “Scaffold attachment factor B1 D73T, Q15424”, the figure is -0.231 ± 0.056; as for “Scaffold attachment factor B1 D73V, Q15424”, -0.23 ± 0.053; as for “Scaffold attachment factor B1 D73W, Q15424”, -0.513 ± 0.056.
As for “Scaffold attachment factor B1 D73Y, Q15424”, the abundance fitness was -0.375 ± 0.073.
“Scaffold attachment factor B1 E42C, Q15424” showed an abundance fitness of -0.346 ± 0.063.
As for “Scaffold attachment factor B1 E42D, Q15424”, the figure is -0.881 ± 0.099; as for “Scaffold attachment factor B1 E42F, Q15424”, -0.587 ± 0.076; as for “Scaffold attachment factor B1 E42H, Q15424”, -0.686 ± 0.12.
The figure for “Scaffold attachment factor B1 E42I, Q15424” is -0.422 ± 0.057; for “Scaffold attachment factor B1 E42K, Q15424” it is -0.852 ± 0.1; for “Scaffold attachment factor B1 E42L, Q15424” it is -0.188 ± 0.061.
